From publication PMC11260447, “OptoLacI: optogenetically engineered lactose operon repressor LacI responsive to light instead of IPTG” (Nucleic Acids Research, 2024) come the findings set out here.

This data set deals with the molecule itself. In words: SEC; purified protein incubated 1 hour in the dark, then Superdex 200 Increase 10/300 GL under dark condition; 20 mM Hepes pH 7.5, 200 mM NaCl.

B1: OptoLacI^L (LacI^(W220F, 311-LOV2)) (other, E. coli | Avena sativa, UniProt P03023 1-311, looked up)
chain: MKPVTLYDVAEYAGVSYQTVSRVVNQASHVSAKTREKVEAAMAELNYIPNRVAQQLAGKQSLLIGVATSSLALHAPSQIVAAIKSRADQLGASVVVSMVERSGVEACKAAVHNLLAQRVSGLIINYPLDDQDAIAVEAACTNVPALFLDVSDQTPINSIIFSHEDGTRLGVEHLVALGHQQIALLAGPLSSVSARLRLAGWHKYLTRNQIQPIAEREGDFSAMSGFQQTMQMLNEGIVPTAMLVANDQMALGAMRAITESGLRVGADISVVGYDDTEDSSCYIPPLTTIKQDFRLLGQTSVDRLLQLSQGQLERIEKNFVITDPRLPDNPIIFASDSFLQLTEYSREEILGRNCRFLQGPETDRATVRKIRDAIDNQTEVTVQLINYTKSGKKFWNLFHLQPMRDQKGDVQYFIGVQLDGTEHVRDAAEREGVMLIKKTAENIDEAAAVKGNQLLPVSLVKRKTTLAPNTQTASPRALADSLMQLARQVSRLESGQ
notes: LOV2 domain of Avena sativa phototropin 1 (AsLOV2), residues 408-543; source: E. coli BL21 (DE3), plasmid pML364, purified (Ni-NTA twice, size exclusion chromatography)
For B1, the binding result was “binds”.
